US20050227306

Key:
[1] = molecular target: His6-tetraCys-X-MBP protease substrate 23-F [MBP: P0AEX9]
[2] = molecular target: At3g03410 fusion protein expressed from pVP14
[3] = molecular target: His6-tetraCys-X-MBP protease substrate 24-F [MBP: P0AEX9]
[4] = molecular target: His6-tetraCys-X-MBP protease substrate 25-F [MBP: P0AEX9]
[5] = molecular target: His6-tetraCys-X-MBP protease substrate 22-F [MBP: P0AEX9]
[6] = molecular target: At3g16990 fusion protein expressed from pVP15
[7] = molecular target: His6-tetraCys-X-MBP protease substrate 21-F [MBP: P0AEX9]
[8] = molecular target: His6-tetraCys-X-MBP protease substrate 26-F [MBP: P0AEX9]

B1: tobacco etch virus (TEV) protease (protein)
chain: GESLFKGPRDYNPISSTICHLTNESDGHTTSLYGIGFGPFIITNKHLFRRNNGTLLVQSLHGVFKVKNTTTLQQHLIDGRDMIIIRMPKDFPPFPQKLKFREPQREERICLVTTNFQTKSMSSMVSDTSCTFPSSDGIFWKHWIQTKDGQCGSPLVSTRDGFIVGIHSASNFTNTNNYFTSVPKNFMELLTNQEAQQWVSGWRLNADSVLWGGHKVFMSKPEEPFQPVKEATQLMNELVYSQ
Which results are given for B1?
relative rate of reaction (initial proteolysis rate by fluorescence anisotropy, normalised to the cognate substrate) (relative rate) [1]: -0.02; fluorescence anisotropy over time [2]: time-dependent decreases in anisotropy; relative rate of reaction (initial proteolysis rate by fluorescence anisotropy, normalised to the cognate substrate) (relative rate) [3]: -0.01; relative rate of reaction (initial proteolysis rate by fluorescence anisotropy, normalised to the cognate substrate) (relative rate) [4]: 0; relative rate of reaction (initial proteolysis rate by fluorescence anisotropy, normalised to the cognate substrate) (relative rate) [5]: 0; fluorescence anisotropy over time [6]: a time-dependent decrease in anisotropy was observed; fluorescence anisotropy and SDS-PAGE [7]: underwent a minor amount of proteolysis; relative rate of reaction (initial proteolysis rate by fluorescence anisotropy, normalised to the cognate substrate) (relative rate) [7]: 0.01; relative rate of reaction (initial proteolysis rate by fluorescence anisotropy, normalised to the cognate substrate) (relative rate) [8]: 1; specific reaction rate (slope of initial proteolysis rate versus protease concentration) [8]: TEV protease; 17.3±0.7
